Test results from US10293018B2, “Fusion protein for treating rejection reaction in transplantation” (Immunwork Inc., priority 2015, dated 2019).

How the values were obtained:
[1] = tested on: mTOR/p70S6K signaling pathway; assay: Western blot analysis of mTOR/p70S6K signaling pathway in Jurkat T cells; type: cell-based, human; settings: 100 nM compound with 10 ng/ml IL2, 24 hours, without changes in total p70S6K, FIG. 20A
Method: To examine the biological activities of these compounds, western blot analysis of mTOR/p70S6K signaling pathway and T-cell proliferation assay were performed with human Jurkat T cells. T-cell viability and proliferation were assessed using alamarBlue® cell viability reagent (Invitrogen).
For the western blot analysis of mTOR/p70S6K signaling pathway, briefly, Jurkat T cell were seeded into 6-cm cell culture dish in RPM11640 medium containing 10% fetal bovine serum.
Insoluble material was collected by centrifugation at 14,000×g for 20 minutes at 4° C. The cell lysate samples were separated on 10% SDS-PAGE gels and transferred to a PVDF membrane (Millipore). The membrane blots were blocked in PBS containing 5% BSA for 1 hour at room temperature, and incubated with primary antibodies, anti-phospho-p70S6K antibody (Cell Signaling Technology, Danvers, USA) and anti-p70S6K antibody (Cell Signaling Technology), overnight at 4° C. […] Then the membranes were washed three times with TBST, and immunoreacted bands were detected with ECL™ western blotting detection reagents (Millipore) and exposed on Fujifilm (Tokyo, Japan). Relative quantification of ECL signals on X-ray films were analyzed by using Image J (NIH, Bethesda, Md., USA).

PD1-IgG1.Fc = target: T1, PD1-IgG1.Fc (Homo sapiens, UniProt Q15116); assay: ELISA of coated recombinant PD-L1 binding PD1-IgG1.Fc; settings: PD-L1 coated at 50 μg/ml, PD1-IgG1.Fc at 50 μg/ml; FIG. 14D
T1 construct: made in house; host or cells: Expi293F
T1 sequence (Q15116 with tags, fused parts or gaps): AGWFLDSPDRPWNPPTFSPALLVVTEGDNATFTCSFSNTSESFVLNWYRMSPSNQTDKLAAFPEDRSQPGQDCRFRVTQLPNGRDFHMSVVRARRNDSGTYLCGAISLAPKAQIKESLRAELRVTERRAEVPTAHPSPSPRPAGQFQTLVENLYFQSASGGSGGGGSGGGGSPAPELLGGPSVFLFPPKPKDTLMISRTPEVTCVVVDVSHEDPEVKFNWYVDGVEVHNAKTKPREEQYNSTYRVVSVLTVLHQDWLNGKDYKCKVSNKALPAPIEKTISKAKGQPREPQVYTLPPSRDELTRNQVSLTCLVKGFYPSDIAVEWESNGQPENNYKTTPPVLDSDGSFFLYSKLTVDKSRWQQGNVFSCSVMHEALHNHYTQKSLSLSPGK
Method: Binding activity of recombinant PD-L1 protein was assayed with ELISA using a 96-well plate coated with recombinant PD-L1 protein in 50 μg/ml concentration, 100 μl per well. After the excess PD-L1 was washed off and the solid phase blocked, 100 μl per well of PD1-IgG1.Fc at 50 μg/ml was added. The bound PD1-IgG1.Fc was determined by HRP-conjugated goat anti-human IgG.Fc. 50 μl of TMB substrate was added for color development. The reaction was stopped by 50 μl of 1M HCl. Absorbance at 450 nm was measured with a plate reader. Each bar represents the mean OD450 value of duplicate samples.

scFv specific for CTLA-4 = assay: Western blot of recombinant CTLA-4 detected with scFv specific for CTLA-4; type: binding; settings: scFv 1 μg/ml; FIG. 14C
Method: Recombinant CTLA-4 protein was analyzed and detected using western blotting. Briefly, 50 μl of the purified CTLA-4 protein was electrophoresed on the 12% SDS-PAGE gel (lane 2) and electroblotted over to a PDVF membrane. The protein (CTLA-4)-IgG1Fc-(scFv α HLA-A1) was used as a positive control (lane 1). After blocking with 5% BSA in TBST at room temperature for 1 hour, the diluted scFv specific for CTLA-4 (1 μg/ml) was added and incubated with the membrane overnight at 4° C. with gentle shaking. The membrane was rinsed and washed 3 times with TBST. The diluted HRP-conjugated protein L (1:5000) was added and incubated with the membrane at room temperature for 1 hour, and the rinse and wash cycle was repeated with TBST for 3 times. The membrane was then incubated with HRP substrate solution for 20 minutes before being exposed to the photographic film.

human HLA-A1 [2] = target: T2, human HLA-A1 (Homo sapiens, UniProt P04439); assay: ELISA of purified scFv of mAb specific for human HLA-A1; type: binding; settings: scFv specific for TNF-α as negative control; FIG. 15C
T2 construct: made in house; host or cells: Expi293F
Method: The expression of the constructed gene in Expi293F cells was performed as in preceding Examples. Culture supernatants were harvested and scFv proteins in the media were purified using Protein L affinity chromatography. FIGS. 15A, 15B and 15C show 12% SDS-PAGE, mass spectrometric and ELISA analyses of purified scFv of mAb specific for human HLA-A1. […] The scFv specific for TNF-α was used as a negative control, which was prepared as described in PCT patent application publication No. WO/2016112870.

human HLA-A2 = target: T3, human HLA-A2 (Homo sapiens, UniProt P04439); assay: Single colony ELISA of phage-displayed scFvs specific for human HLA-A2; type: binding; settings: secreted scFv in supernatant; HLA-A2 0.5 μg per well; FIG. 16B
T3 construct: made in house; host or cells: Expi293F
Method: E. coli strain ER2738 infected with single-clonal phages each harboring a selected scFv gene in its phagemid was grown in the mid-log phase in 2YT broth (16 g/l tryptone, 10 g/l yeast extract, 5 g/l NaCl, pH 7.0) with 100 μg/ml ampicillin in deep well at 37° C. with shaking. After the broth reached an OD600 of 1.0, IPTG was added to a final concentration of 1 μg/ml. The plates were incubated at 37° C. overnight under rigorously shaking. Thereafter, the plates were centrifuged at 4,000 g for 15 minutes at 4° C.
For soluble scFv binding test, ELISA was carried out. Briefly, 96-well Maxisorp 96-well plate (Nunc) was coated with human HLA-A2 (0.5 μg/100 μl PBS per well) or two negative control antigens, human heat shock protein 70 (Hsp 70) and RSV-IgG1.Fc fusion protein (prepared by our laboratory), for 18 hours with shaking at 4° C. After being treated with 300 μl of blocking buffer for 1 hour, 100 μl of secreted scFv in the supernatant was mixed with 100 μl of blocking buffer and then added to the coated plate for another 1 hour. Goat anti-E-tag antibody (conjugated with HRP, 1:4000, Cat. No. AB19400, Abcam) was added to the plate for 1 hour. TMB substrate (50 μl per well) was added to the wells and the absorbance at 450 nm was measured after reactions were stopped by adding 1N HCl (50 μl per well).

human HLA-A1 [3] = target: T2, human HLA-A1; assay: ELISA of tetrazine-conjugated scFv specific for human HLA-A1; type: binding; settings: unmodified scFv as positive control; FIG. 17B
From the text: The purity of tetrazine-conjugated scFv specific for human HLA-A1 was identified through Coomassie blue staining of 12% SDS-PAGE. FIGS. 17A and 17B show, respectively, the mass spectrometric and ELISA analysis of tetrazine-conjugated scFv specific for human HLA-A1, in which unmodified scFv specific for human HLA-A1 was used as a positive control.

Molecule: COC1CC2CCC(C)C(O)(O2)C(=O)C(=O)N2CCCCC2C(=O)OC(C(C)CC2CCC(OC(=O)CNC(=O)CN)C(OC)C2)CC(=O)C(C)C=C(C)C(O)C(OC)C(=O)C(C)CC(C)C=CC=CC=C1C (stereo not shown) [sirolimus-diGly]
- phosphorylated level of p70S6K [1]: decreased

Molecule: recombinant human PD-L1: recombinant human PD-L1, SEQ ID NO: 31, with GGGGSGGGGS linker and terminal cysteine at the C-terminus
- binding to recombinant PD1-IgG1.Fc (ELISA) (PD1-IgG1.Fc): specifically bound

Molecule: COC1CC2CCC(C)C(O)(O2)C(=O)C(=O)N2CCCCC2C(=O)OC(C(C)CC2CCC(OC(=O)CN)C(OC)C2)CC(=O)C(C)C=C(C)C(O)C(OC)C(=O)C(C)CC(C)C=CC=CC=C1C (stereo not shown) [sirolimus-Gly]
- phosphorylated level of p70S6K [1]: decreased

Molecule: recombinant human CTLA-4: recombinant human CTLA-4, SEQ ID NO: 30, with GGGGSGGGGS linker and terminal cysteine at the C-terminus
- binding by the scFv specific for CTLA-4 (western blot) (scFv specific for CTLA-4): specifically bound

B1: scFv of mAb specific for human HLA-A1: scFv with VL and VH from monoclonal antibody 4-35-7, SEQ ID NO: 32 (protein)
scFv: DIQMTQSPSTLSASVGDRVTITCRASQSISNWLAWYQQKPGKAPNLLIYKASSLESGVPSRFSGSGSGTEFTLTISSLQPDDFATYYCQQYHDYSVTFGAGTKVEIKRGGGGSGGGGSGGGGSEVQLLESGGGLVQPGGSQRLSCVASGVPFSNYAMNWVRQAPGKGLEWVSSISGGGDRTFYADSVKGRFTISRDNSKNTLYLQMNSLGAGDTAVYYCAKTYYDFWSGYSRHLNSWGQGSLVTVSSGGGGSGGGGSC
modifications: anti-HLA-A1 4-35-7 scFv
- binding to human HLA-A1 (ELISA) (human HLA-A1 [2]): bound specifically

B2: 3E10: phage-displayed scFv clone that binds to human HLA-A2, SEQ ID NO: 34 (protein)
scFv: DIQMTQSPSSLSASVGDRVTITCRASQDVFFFVAWYQQKPGKAPKLLIYGPPGLYSGVPSRFSGSGSGTDFTLTISSLQPEDFATYYCQQYFSFPITFGQGTKVEIKRGGGGSIEGRSGGGGSEVQLVESGGGLVQPGGSLRLSCAASGFTISNGGIHWVRQAPGKGLEWVASIWPSGGYTSYADSVKGRFTISADTSKNTAYLQMNSLRAEDTAVYYCARFGVNYHGIMDYWGQGTLVTVSS
modifications: phage-displayed scFv specific for HLA-A2, 3E10
- OD450 of binding to human HLA-A2 (human HLA-A2): 1.3

B3: tetrazine-conjugated scFv specific for human HLA-A1: scFv specific for human HLA-A1 (SEQ ID NO: 32) conjugated at C-terminal cysteine with Mal-PEG4-tetrazine (conjugate)
scFv: B1 scFv
modifications: Mal-PEG4-tetrazine at C-terminal cysteine; anti-HLA-A1 4-35-7 scFv
- binding to recombinant HLA-A1 (ELISA) (human HLA-A1 [3]): bound to recombinant HLA-A1
